From the supplement of paper PMC10567573

B1: MFF (parent)
chain: MAEISRIQYEMEYTEGISQRMRVP

Variants of: B1
Experiment: protein stability index of a GFP-peptide fusion (GPS, HEK-293T) (PSI 1-6); higher = more stable
Conditions: c terminus: a fixed tail appended
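Note: lentivirally expressed fusions sorted by FACS into six bins by GFP to DsRed ratio, PSI derived from sequencing read proportions per bin multiplied by bin number.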

Variant	protein stability index
MAEISRIQYEMEETEGISQRMRVP [Y13E]	3.32
MAEISRIQYEMECTEGISQRMRVP [Y13C]	3.22
MAEISRIQYEMELTEGISQRMRVP [Y13L]	2.62
MAEISRIQYEMEFTEGISQRMRVP [Y13F]	2.41
MAEISRIQYEMEGTEGISQRMRVP [Y13G]	3.66
MAEISRIQYEMEATEGISQRMRVP [Y13A]	2.73
MAEISRIQYEMEKTEGISQRMRVP [Y13K]	2.96
MAEISRIQYEMEYTEGASQRMRVP [I17A]	3.03
MAEISRIQYEMEYTEGPSQRMRVP [I17P]	3.57
MAEISRIQYEMEYTEGWSQRMRVP [I17W]	2.25
MAEISRIQYEMEYTEGKSQRMRVP [I17K]	3.18
MAEISRIQYEMEYTEGSSQRMRVP [I17S]	3.52
MAEISRIQYEMEYTEGTSQRMRVP [I17T]	3.4
MAEISDIQYEMEYTEGISQRMRVP [R6D]	3.28
MAEISWIQYEMEYTEGISQRMRVP [R6W]	1.95
MAEISSIQYEMEYTEGISQRMRVP [R6S]	3.37
MAEISLIQYEMEYTEGISQRMRVP [R6L]	1.71
MAEISNIQYEMEYTEGISQRMRVP [R6N]	3.27
MAEISTIQYEMEYTEGISQRMRVP [R6T]	2.93
MAEISVIQYEMEYTEGISQRMRVP [R6V]	2.03
MAEISAIQYEMEYTEGISQRMRVP [R6A]	3.16
MAEISPIQYEMEYTEGISQRMRVP [R6P]	3.36
PAEISRIQYEMEYTEGISQRMRVP [M1P]	3.45
QAEISRIQYEMEYTEGISQRMRVP [M1Q]	3.56

Variant	protein stability index
KAEISRIQYEMEYTEGISQRMRVP [M1K]	2.97
LAEISRIQYEMEYTEGISQRMRVP [M1L]	2.55
NAEISRIQYEMEYTEGISQRMRVP [M1N]	3.16
RAEISRIQYEMEYTEGISQRMRVP [M1R]	3.1
MAEISRIQYEMEYTEGISQRIRVP [M21I]	2.42
MAEISRIQYEMEYTEGISQRSRVP [M21S]	3.31
MAEISRIQYEMEYTEGISQRPRVP [M21P]	3.59
MAEISRIQYEMEYTEGISQRCRVP [M21C]	2.32
MAEISRIQYEMEYTEGISQRLRVP [M21L]	2.26
MAEISRIQYEMEYTEGISHRMRVP [Q19H]	2.34
MAEISRIQYEMEYTEGISLRMRVP [Q19L]	1.41
MAEISRIQYEMEYTEGISRRMRVP [Q19R]	2.59
MAEISRIQYEMEYTEGISTRMRVP [Q19T]	2.66
MAEISRIQYEMEYTEGISARMRVP [Q19A]	2.47
MAEISRIQYEMEYTEGISNRMRVP [Q19N]	3.06
MAEISRIQYEMEYTEGISMRMRVP [Q19M]	2.65
MAEISRIQYEMEYTEGISIRMRVP [Q19I]	1.89
MAEISRIQYEMEYTEGISERMRVP [Q19E]	2.54
MAEISRIQYEMEYCEGISQRMRVP [T14C]	2.24
MAEISRIQYEMEYKEGISQRMRVP [T14K]	3.28
MAEISRIQYEMEYHEGISQRMRVP [T14H]	2.5
MAEISRIQYEMEYQEGISQRMRVP [T14Q]	3.08
MAEISRIQYEMEYFEGISQRMRVP [T14F]	1.65
MAEISRIQYEMEYSEGISQRMRVP [T14S]	2.71

Variant	protein stability index
MAEISRIQYEMEYVEGISQRMRVP [T14V]	2.56
MAEISRIQYEMEYNEGISQRMRVP [T14N]	3.15
MAEISRIQYEMEYTEGISQRMRVN [P24N]	2.56
MAEISRIQYEMEYTEGISQRMRVM [P24M]	2.21
MAEISRIQYEMEYTEGISQRMRVR [P24R]	2.87
MAEISRIQYEMEYTEGISQRMRVF [P24F]	1.54
MAEISRIQYEMEYTEGISQRMRVK [P24K]	2.98
MAEISRIQMEMEYTEGISQRMRVP [Y9M]	2.42
MAEISRIQGEMEYTEGISQRMRVP [Y9G]	3.6
MAEISRIQDEMEYTEGISQRMRVP [Y9D]	3.85
MAEISRIQAEMEYTEGISQRMRVP [Y9A]	3.31
MAEISRIQLEMEYTEGISQRMRVP [Y9L]	2.28
MAEISRIQTEMEYTEGISQRMRVP [Y9T]	3.22
MAEISRIQFEMEYTEGISQRMRVP [Y9F]	2.11
MAEISRIQHEMEYTEGISQRMRVP [Y9H]	3.09
MAEISRIQYEMEYTEGISQSMRVP [R20S]	2.27
MAEISRIQYEMEYTEGISQTMRVP [R20T]	2.66
MAEISRIQYEMEYTEGISQWMRVP [R20W]	1.67
MAEISRIQYEMEYTEGISQHMRVP [R20H]	2.22
MAEISRIQYEMEYTEGISQNMRVP [R20N]	2.46
MAEASRIQYEMEYTEGISQRMRVP [I4A]	3.38
MAESSRIQYEMEYTEGISQRMRVP [I4S]	3.42
MAECSRIQYEMEYTEGISQRMRVP [I4C]	3.6
MAERSRIQYEMEYTEGISQRMRVP [I4R]	3.31

Variant	protein stability index
MAELSRIQYEMEYTEGISQRMRVP [I4L]	2.99
MAENSRIQYEMEYTEGISQRMRVP [I4N]	3.71
MAEVSRIQYEMEYTEGISQRMRVP [I4V]	2.74
MAEESRIQYEMEYTEGISQRMRVP [I4E]	4.08
MAEWSRIQYEMEYTEGISQRMRVP [I4W]	2.89
MAEKSRIQYEMEYTEGISQRMRVP [I4K]	3.58
MAEISRIQYEMEYTEGISQRMKVP [R22K]	2.8
MAEISRIQYEMEYTEGISQRMPVP [R22P]	2.56
MAEISRIQYEMEYTEGISQRMEVP [R22E]	2.86
MAEISRIQYEMEYTEGISQRMTVP [R22T]	2.98
MAEISRIQYEMEYTEGISQRMMVP [R22M]	2.38
MAEISRIQYEMEYTEGISQRMYVP [R22Y]	2.23
MAEISRIQYEMEYTEGISQRMVVP [R22V]	2.9
MAEISRIQYEMEYTEGISQRMCVP [R22C]	2.4
MAEISRIQYEMEYTEGISQRMAVP [R22A]	2.63
MAEISRIQYEMEYTEGISQRMIVP [R22I]	1.84
MACISRIQYEMEYTEGISQRMRVP [E3C]	2.45
MAAISRIQYEMEYTEGISQRMRVP [E3A]	1.85
MATISRIQYEMEYTEGISQRMRVP [E3T]	2.07
MAGISRIQYEMEYTEGISQRMRVP [E3G]	2.96
MALISRIQYEMEYTEGISQRMRVP [E3L]	1.77
MAVISRIQYEMEYTEGISQRMRVP [E3V]	1.98
